The values that follow come from patent US20150152406A1 (NBE THERAPEUTICS, published 2015).

The assay has as its target T1, 6xHis-tagged, recombinant human CD30 (Sino Biological Inc., order #10777-H08H) (human, UniProt P28908 19-379).
T1 construct: Bought soluble reagent; It was detected with biotinylated anti-His-tag antibody and streptavidin-PE; also called CD30 antigen; CD30-6xHis
T1 sequence: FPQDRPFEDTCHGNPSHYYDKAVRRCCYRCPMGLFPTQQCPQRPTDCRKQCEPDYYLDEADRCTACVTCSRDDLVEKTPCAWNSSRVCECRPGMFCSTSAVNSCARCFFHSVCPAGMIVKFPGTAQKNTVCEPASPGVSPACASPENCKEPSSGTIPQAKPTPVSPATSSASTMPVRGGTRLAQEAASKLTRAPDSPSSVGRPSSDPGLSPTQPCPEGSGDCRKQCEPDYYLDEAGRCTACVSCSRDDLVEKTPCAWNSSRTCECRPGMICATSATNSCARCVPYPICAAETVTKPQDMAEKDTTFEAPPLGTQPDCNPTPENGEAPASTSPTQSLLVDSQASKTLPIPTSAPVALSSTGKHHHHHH
The assay is described as follows: flow cytometry; 63-12 cells displaying anti-CD19 IgG as background, stained with His-tagged CD30 / anti-His-biotin / strep-PE. (In general: A flow cytometer gives signals particle by particle.)

Protocol: After the final FACS staining, the cells were again washed twice in ice-cold PBS, 2% FCS, and then resuspended in 1.0 ml PBS, 2% FCS, after which the cells were subjected to FACS analysis and cell sorting of Ig-kappaLC/CD30 positive cells (see FIG. 13).

B1: humanized anti-human CD19 antibody hBU12, membrane bound human IgG1 on the surface of 63-12 proB cells (antibody, V domains shown)
VH: QVQLQESGPGLVKPSQTLSLTCTVSGGSISTSGMGVGWIRQHPGKGLEWIGHIWWDDDKRYNPALKSRVTISVDTSKNQFSLKLSSVTAADTAVYYCARMELWSYYFDYWGQGTLVTVSS
VL: EIVLTQSPATLSLSPGERATLSCSASSSVSYMHWYQQKPGQAPRLLIYDTSKLASGIPARFSGSGSGTDFTLTISSLEPEDVAVYYCFQGSVYPFTFGQGTKLEIK
notes: also called anti-CD19 mAb hBU12; anti-CD19 mAb
On to B1, for which the binding result was “no binding (tested: 0.1 µg CD30 in 1 ml)”.
